From patent US20250320281A1

Experiments:
Assay in all cases: cell-based or functional assay
[1] = molecular target: HIV-1 Env of isolate 92RW008 (pseudovirus) (HIV-1)
[2] = molecular target: HIV-1 Env of isolate 92TH021 (pseudovirus) (HIV-1)
[3] = molecular target: HIV-1 Env of isolate 92UG031 (pseudovirus) (HIV-1)
[4] = molecular target: HIV-1 Env of isolate 92UG037 (pseudovirus) (HIV-1)
[5] = molecular target: HIV-1 Env of isolate 92WR009 (pseudovirus) (HIV-1)
[6] = molecular target: HIV-1 Env of isolate 92WR020 (pseudovirus) (HIV-1)
[7] = molecular target: HIV-1 Env of isolate 92WR021 (pseudovirus) (HIV-1)
[8] = molecular target: HIV-1 Env of isolate 92WR024 (pseudovirus) (HIV-1)
[9] = molecular target: HIV-1 Env of isolate 92WR026 (pseudovirus) (HIV-1)
[10] = molecular target: HIV-1 Env of isolate 93UG077 (pseudovirus) (HIV-1)
[11] = molecular target: HIV-1 Env of isolate 93WR029 (pseudovirus) (HIV-1)
[12] = molecular target: HIV-1 Env of isolate 94KE105 (pseudovirus) (HIV-1)
[13] = molecular target: HIV-1 Env of isolate 94UG103 (pseudovirus) (HIV-1)
[14] = molecular target: HIV-1 Env of isolate CMU02 (pseudovirus) (HIV-1)
[15] = molecular target: HIV-1 Env of isolate MGRM-A-001 (pseudovirus) (HIV-1)
[16] = molecular target: HIV-1 Env of isolate MGRM-A-002 (pseudovirus) (HIV-1)
[17] = molecular target: HIV-1 Env of isolate MGRM-A-003 (pseudovirus) (HIV-1)
[18] = molecular target: HIV-1 Env of isolate MGRM-A-004 (pseudovirus) (HIV-1)
[19] = molecular target: HIV-1 Env of isolate MGRM-A-005 (pseudovirus) (HIV-1)
[20] = molecular target: HIV-1 Env of isolate MGRM-A-006 (pseudovirus) (HIV-1)
[21] = molecular target: HIV-1 Env of isolate MGRM-A-007 (pseudovirus) (HIV-1)
[22] = molecular target: HIV-1 Env of isolate MGRM-A-008 (pseudovirus) (HIV-1)
[23] = molecular target: HIV-1 Env of isolate MGRM-A-009 (pseudovirus) (HIV-1)
[24] = molecular target: HIV-1 Env of isolate MGRM-A-010 (pseudovirus) (HIV-1)
[25] = molecular target: HIV-1 Env of isolate MGRM-A-011 (pseudovirus) (HIV-1)
[26] = molecular target: HIV-1 Env of isolate MGRM-A-012 (pseudovirus) (HIV-1)
[27] = molecular target: HIV-1 Env of isolate MGRM-A-013 (pseudovirus) (HIV-1)
[28] = molecular target: HIV-1 Env of isolate MGRM-A-014 (pseudovirus) (HIV-1)
[29] = molecular target: HIV-1 Env of isolate MGRM-AE-001 (pseudovirus) (HIV-1)
[30] = molecular target: HIV-1 Env of isolate MGRM-AE-002 (pseudovirus) (HIV-1)
[31] = molecular target: HIV-1 Env of isolate MGRM-AE-003 (pseudovirus) (HIV-1)
[32] = molecular target: HIV-1 Env of isolate VLGCA1 (pseudovirus) (HIV-1)
[33] = molecular target: HIV-1 Env of isolate 92BR020 (pseudovirus) (HIV-1)
[34] = molecular target: HIV-1 Env of isolate JR-CSF (pseudovirus) (HIV-1) (UniProt P20871)
[35] = molecular target: HIV-1 Env of isolate MGRM-C-026 (pseudovirus) (HIV-1)
[36] = molecular target: HIV-1 Env of isolate 93IN905 (pseudovirus) (HIV-1)

B1: PGT-125 (5123_A06) (antibody, V domains shown)
VH: QSQLQESGPRLVEASETLSLTCNVSGESTGACTYFWGWVRQAPGKGLEWIGSLSHCQSFWGSGWTFHNPSLKSRLTISLDTPKNQVFLKLTSLTAADTATYYCARFDGEVLVYNHWPKPAWVDLWGRGIPVTVSS
VL: QSALTQPPSASGSPGQSITISCNGTATNFVSWYQQFPDKAPKLIIFGVDKRPPGVPDRFSGSRSGTTASLTVSRLQTDDEAVYYCGSLVGNWDVIFGGGTTLTVL
- IC50 (µg/mL), pseudovirus neutralization [1]: 0.004 µg/mL
- IC50 (µg/mL), pseudovirus neutralization [2]: 0.006 µg/mL
- IC50 (µg/mL), pseudovirus neutralization [3]: > 50 µg/mL
- IC50 (µg/mL), pseudovirus neutralization [4]: 0.005 µg/mL
- IC50 (µg/mL), pseudovirus neutralization [5]: 0.144 µg/mL
- IC50 (µg/mL), pseudovirus neutralization [6]: 0.004 µg/mL
- IC50 (µg/mL), pseudovirus neutralization [7]: 0.005 µg/mL
- IC50 (µg/mL), pseudovirus neutralization [8]: 35.5 µg/mL
- IC50 (µg/mL), pseudovirus neutralization [9]: 0.007 µg/mL
- IC50 (µg/mL), pseudovirus neutralization [10]: 0.012 µg/mL
- IC50 (µg/mL), pseudovirus neutralization [11]: > 50 µg/mL
- IC50 (µg/mL), pseudovirus neutralization [12]: 0.004 µg/mL
- IC50 (µg/mL), pseudovirus neutralization [13]: 0.008 µg/mL
- IC50 (µg/mL), pseudovirus neutralization [14]: > 50 µg/mL
- IC50 (µg/mL), pseudovirus neutralization [15]: 12.4 µg/mL
- IC50 (µg/mL), pseudovirus neutralization [16]: 0.013 µg/mL
- IC50 (µg/mL), pseudovirus neutralization [17]: > 50 µg/mL
- IC50 (µg/mL), pseudovirus neutralization [18]: > 50 µg/mL
- IC50 (µg/mL), pseudovirus neutralization [19]: > 50 µg/mL
- IC50 (µg/mL), pseudovirus neutralization [20]: > 50 µg/mL
- IC50 (µg/mL), pseudovirus neutralization [21]: > 50 µg/mL
- IC50 (µg/mL), pseudovirus neutralization [22]: > 50 µg/mL
- IC50 (µg/mL), pseudovirus neutralization [23]: 0.009 µg/mL
- IC50 (µg/mL), pseudovirus neutralization [24]: 0.004 µg/mL
- IC50 (µg/mL), pseudovirus neutralization [25]: > 50 µg/mL
- IC50 (µg/mL), pseudovirus neutralization [26]: 0.177 µg/mL
- IC50 (µg/mL), pseudovirus neutralization [27]: 0.014 µg/mL
- IC50 (µg/mL), pseudovirus neutralization [28]: 13.9 µg/mL
- IC50 (µg/mL), pseudovirus neutralization [29]: 2.95 µg/mL
- IC50 (µg/mL), pseudovirus neutralization [30]: > 50 µg/mL
- IC50 (µg/mL), pseudovirus neutralization [31]: 0.092 µg/mL
- IC50 (µg/mL), pseudovirus neutralization [32]: 0.078 µg/mL

B2: 4869_K15 (PGT-133) (antibody, V domains shown)
VH: QVHLQESGPGLVTPSETLSLTCTVSNGSVSGRFWSWIRQSPGRGLEWIGYFSDTDRSEYNPSLRSRLTLSVDRSKNQLSLRLKSVTAADSATYYCARAQQGKRIYGIVSFGEFFYYYYMDAWGKGTPVTVSS
VL: SLNPLSLAPGATAKIPCGERSRGSRAVQWYQQKPGQAPTLIIYNNQDRPAGVSERFSGNPDVAIGVTATLTISRVEVGDEADYYCHYWDSRSPISWIFGGGTQLTVL
- Primary Neutralization Index (B cell culture supernatant) [33]: 3.9
- Primary Neutralization Index (B cell culture supernatant) [13]: 1.5
- Primary Neutralization Index (B cell culture supernatant) [34]: 2.1
- Primary Neutralization Index (B cell culture supernatant) [35]: 104

B3: 5344_E16 (PGT-135) (antibody, V domains shown)
VH: QLQMQESGPGLVKPSETLSLSCTVSGDSIRGGEWGDKDYHWGWVRHSAGKGLEWIGSIHWRGTTHYKESLRRRVSMSIDTSRNWFSLRLASVTAADTAVYFCARHRHHDVFMLVPIAGWFDVWGPGVQVTVSS
VL: EIVMTQSPDTLSVSPGETVTLSCRASQNINKNLAWYQYKPGQSPRLVIFETYSKIAAFPARFVASGSGTEFTLTINNMQSEDVAVYYCQQYEEWPRTFGQGTKVDIK
- Primary Neutralization Index (B cell culture supernatant) [36]: 2.3
- Primary Neutralization Index (B cell culture supernatant) [34]: 1.5
- Primary Neutralization Index (B cell culture supernatant) [35]: 3.6
